Measured values taken from patent US20240270846A1 (published 2024).

The binders below were run against T1, CD3 epsilon homodimer protein (UniProt P07766 23-126) (assay: SPR Biacore T200, CD3e homodimer on chip, antibody analyte;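 note: CD3 epsilon homodimer amine-coupled on CM4 sensor chip, antibodies injected as analyte at 25 °C in HBS-EP+, ratio ≥0.8 taken as binding retained versus unaltered parent antibody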).
T1 construct: Construct of the homodimer is not described; also called CD3 (CD3 epsilon)
T1 sequence (P07766 23-126): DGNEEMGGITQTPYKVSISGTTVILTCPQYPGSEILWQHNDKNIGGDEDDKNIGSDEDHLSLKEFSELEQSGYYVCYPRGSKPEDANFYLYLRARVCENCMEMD

| Binder | ratio of amounts bound (altered form/GLS3000) |
| --- | --- |
| GLS3000 S56K one-arm antibody (antibody, human IgG1, kappa, L234A L235A, N297A, name in Kabat numbering) light: DIVMTQSPLSLPVTPGEPASISCRSSQSLVHSNRNTYLHWYQQKPGQAPRLLIYKVSNRFKGVPDRFSGSGSGTDFTLKISRVEAEDVGVYYCGQGTQVPYTFGQGTKLEIKRTVAAPSVFIFPPSDEQLKSGTASVVCLLNNFYPREAKVQWKVDNALQSGNSQESVTEQDSKDSTYSLSSTLTLSKADYEKHKVYACEVTHQGLSSPVTKSFNRGEC heavy: QVQLVESGGGVVQPGRSLRLSCAASGFTFSNAWMHWVRQAPGKGLEWVAQIKAKSNNYATYYAESVKGRFTISRDDSKNSLYLQMNSLKTEDTAVYYCRYVHYGAYYGVDAWGQGTTVTVSSASTKGPSVFPLAPSSKSTSGGTAALGCLVKDYFPEPVTVSWNSGALTSGVHTFPAVLQSSGLYSLSSVVTVPSSSLGTQTYICNVNHKPSNTKVDKKVEPKSCDKTHTCPPCPAPEAAGGPSVFLFPPKPKDTLMISRTPEVTCVVVDVSHEDPEVKFNWYVDGVEVHNAKTKPREEQYASTYRVVSVLTVLHQDWLNGKEYKCKVSNKALPAPIEKTISKAKGQPREPQVYTLPPSRCELTKNQVSLSCAVKGFYPSDIAVEWESNGQPENNYKTTPPVLDSDGSFFLVSKLTVDKSRWQQGNVFSCSVMHEALHNHYTQKSLSLSPDYKDDDDK EPKSSDKTHTCPPCPAPELLGGPSVFLFPPKPKDTLMISRTPEVTCVVVDVSHEDPEVKFNWYVDGVEVHNAKTKPREEQYNSTYRVVSVLTVLHQDWLNGKEYKCKVSNKALPAPIEKTISKAKGQPREPQVCTLPPSRDELTKNQVSLWCLVKGFYPSDIAVEWESNGQPENNYKTTPPVLDSDGSFFLYSKLTVDKSRWQQGNVFSCSVMHEALHNRYTQKSLSLSP | 1.46 |
| GLS3000 S56N one-arm antibody (antibody, human IgG1, kappa, L234A L235A, N297A, name in Kabat numbering) light: DIVMTQSPLSLPVTPGEPASISCRSSQSLVHSNRNTYLHWYQQKPGQAPRLLIYKVSNRFNGVPDRFSGSGSGTDFTLKISRVEAEDVGVYYCGQGTQVPYTFGQGTKLEIKRTVAAPSVFIFPPSDEQLKSGTASVVCLLNNFYPREAKVQWKVDNALQSGNSQESVTEQDSKDSTYSLSSTLTLSKADYEKHKVYACEVTHQGLSSPVTKSFNRGEC heavy: QVQLVESGGGVVQPGRSLRLSCAASGFTFSNAWMHWVRQAPGKGLEWVAQIKAKSNNYATYYAESVKGRFTISRDDSKNSLYLQMNSLKTEDTAVYYCRYVHYGAYYGVDAWGQGTTVTVSSASTKGPSVFPLAPSSKSTSGGTAALGCLVKDYFPEPVTVSWNSGALTSGVHTFPAVLQSSGLYSLSSVVTVPSSSLGTQTYICNVNHKPSNTKVDKKVEPKSCDKTHTCPPCPAPEAAGGPSVFLFPPKPKDTLMISRTPEVTCVVVDVSHEDPEVKFNWYVDGVEVHNAKTKPREEQYASTYRVVSVLTVLHQDWLNGKEYKCKVSNKALPAPIEKTISKAKGQPREPQVYTLPPSRCELTKNQVSLSCAVKGFYPSDIAVEWESNGQPENNYKTTPPVLDSDGSFFLVSKLTVDKSRWQQGNVFSCSVMHEALHNHYTQKSLSLSPDYKDDDDK EPKSSDKTHTCPPCPAPELLGGPSVFLFPPKPKDTLMISRTPEVTCVVVDVSHEDPEVKFNWYVDGVEVHNAKTKPREEQYNSTYRVVSVLTVLHQDWLNGKEYKCKVSNKALPAPIEKTISKAKGQPREPQVCTLPPSRDELTKNQVSLWCLVKGFYPSDIAVEWESNGQPENNYKTTPPVLDSDGSFFLYSKLTVDKSRWQQGNVFSCSVMHEALHNRYTQKSLSLSP | 0.92 |
| GLS3000 S56M one-arm antibody (antibody, human IgG1, kappa, L234A L235A, N297A, name in Kabat numbering) light: DIVMTQSPLSLPVTPGEPASISCRSSQSLVHSNRNTYLHWYQQKPGQAPRLLIYKVSNRFMGVPDRFSGSGSGTDFTLKISRVEAEDVGVYYCGQGTQVPYTFGQGTKLEIKRTVAAPSVFIFPPSDEQLKSGTASVVCLLNNFYPREAKVQWKVDNALQSGNSQESVTEQDSKDSTYSLSSTLTLSKADYEKHKVYACEVTHQGLSSPVTKSFNRGEC heavy: QVQLVESGGGVVQPGRSLRLSCAASGFTFSNAWMHWVRQAPGKGLEWVAQIKAKSNNYATYYAESVKGRFTISRDDSKNSLYLQMNSLKTEDTAVYYCRYVHYGAYYGVDAWGQGTTVTVSSASTKGPSVFPLAPSSKSTSGGTAALGCLVKDYFPEPVTVSWNSGALTSGVHTFPAVLQSSGLYSLSSVVTVPSSSLGTQTYICNVNHKPSNTKVDKKVEPKSCDKTHTCPPCPAPEAAGGPSVFLFPPKPKDTLMISRTPEVTCVVVDVSHEDPEVKFNWYVDGVEVHNAKTKPREEQYASTYRVVSVLTVLHQDWLNGKEYKCKVSNKALPAPIEKTISKAKGQPREPQVYTLPPSRCELTKNQVSLSCAVKGFYPSDIAVEWESNGQPENNYKTTPPVLDSDGSFFLVSKLTVDKSRWQQGNVFSCSVMHEALHNHYTQKSLSLSPDYKDDDDK EPKSSDKTHTCPPCPAPELLGGPSVFLFPPKPKDTLMISRTPEVTCVVVDVSHEDPEVKFNWYVDGVEVHNAKTKPREEQYNSTYRVVSVLTVLHQDWLNGKEYKCKVSNKALPAPIEKTISKAKGQPREPQVCTLPPSRDELTKNQVSLWCLVKGFYPSDIAVEWESNGQPENNYKTTPPVLDSDGSFFLYSKLTVDKSRWQQGNVFSCSVMHEALHNRYTQKSLSLSP | 1.05 |
| GLS3000 S56L one-arm antibody (antibody, human IgG1, kappa, L234A L235A, N297A, name in Kabat numbering) light: DIVMTQSPLSLPVTPGEPASISCRSSQSLVHSNRNTYLHWYQQKPGQAPRLLIYKVSNRFLGVPDRFSGSGSGTDFTLKISRVEAEDVGVYYCGQGTQVPYTFGQGTKLEIKRTVAAPSVFIFPPSDEQLKSGTASVVCLLNNFYPREAKVQWKVDNALQSGNSQESVTEQDSKDSTYSLSSTLTLSKADYEKHKVYACEVTHQGLSSPVTKSFNRGEC heavy: QVQLVESGGGVVQPGRSLRLSCAASGFTFSNAWMHWVRQAPGKGLEWVAQIKAKSNNYATYYAESVKGRFTISRDDSKNSLYLQMNSLKTEDTAVYYCRYVHYGAYYGVDAWGQGTTVTVSSASTKGPSVFPLAPSSKSTSGGTAALGCLVKDYFPEPVTVSWNSGALTSGVHTFPAVLQSSGLYSLSSVVTVPSSSLGTQTYICNVNHKPSNTKVDKKVEPKSCDKTHTCPPCPAPEAAGGPSVFLFPPKPKDTLMISRTPEVTCVVVDVSHEDPEVKFNWYVDGVEVHNAKTKPREEQYASTYRVVSVLTVLHQDWLNGKEYKCKVSNKALPAPIEKTISKAKGQPREPQVYTLPPSRCELTKNQVSLSCAVKGFYPSDIAVEWESNGQPENNYKTTPPVLDSDGSFFLVSKLTVDKSRWQQGNVFSCSVMHEALHNHYTQKSLSLSPDYKDDDDK EPKSSDKTHTCPPCPAPELLGGPSVFLFPPKPKDTLMISRTPEVTCVVVDVSHEDPEVKFNWYVDGVEVHNAKTKPREEQYNSTYRVVSVLTVLHQDWLNGKEYKCKVSNKALPAPIEKTISKAKGQPREPQVCTLPPSRDELTKNQVSLWCLVKGFYPSDIAVEWESNGQPENNYKTTPPVLDSDGSFFLYSKLTVDKSRWQQGNVFSCSVMHEALHNRYTQKSLSLSP | 1.02 |

Next, values leading:

| ratio of amounts bound (altered form/GLS3000) | Binder |
| --- | --- |
| 0.95 | GLS3000 S56P one-arm antibody (antibody, human IgG1, kappa, L234A L235A, N297A, name in Kabat numbering) light: DIVMTQSPLSLPVTPGEPASISCRSSQSLVHSNRNTYLHWYQQKPGQAPRLLIYKVSNRFPGVPDRFSGSGSGTDFTLKISRVEAEDVGVYYCGQGTQVPYTFGQGTKLEIKRTVAAPSVFIFPPSDEQLKSGTASVVCLLNNFYPREAKVQWKVDNALQSGNSQESVTEQDSKDSTYSLSSTLTLSKADYEKHKVYACEVTHQGLSSPVTKSFNRGEC heavy: QVQLVESGGGVVQPGRSLRLSCAASGFTFSNAWMHWVRQAPGKGLEWVAQIKAKSNNYATYYAESVKGRFTISRDDSKNSLYLQMNSLKTEDTAVYYCRYVHYGAYYGVDAWGQGTTVTVSSASTKGPSVFPLAPSSKSTSGGTAALGCLVKDYFPEPVTVSWNSGALTSGVHTFPAVLQSSGLYSLSSVVTVPSSSLGTQTYICNVNHKPSNTKVDKKVEPKSCDKTHTCPPCPAPEAAGGPSVFLFPPKPKDTLMISRTPEVTCVVVDVSHEDPEVKFNWYVDGVEVHNAKTKPREEQYASTYRVVSVLTVLHQDWLNGKEYKCKVSNKALPAPIEKTISKAKGQPREPQVYTLPPSRCELTKNQVSLSCAVKGFYPSDIAVEWESNGQPENNYKTTPPVLDSDGSFFLVSKLTVDKSRWQQGNVFSCSVMHEALHNHYTQKSLSLSPDYKDDDDK EPKSSDKTHTCPPCPAPELLGGPSVFLFPPKPKDTLMISRTPEVTCVVVDVSHEDPEVKFNWYVDGVEVHNAKTKPREEQYNSTYRVVSVLTVLHQDWLNGKEYKCKVSNKALPAPIEKTISKAKGQPREPQVCTLPPSRDELTKNQVSLWCLVKGFYPSDIAVEWESNGQPENNYKTTPPVLDSDGSFFLYSKLTVDKSRWQQGNVFSCSVMHEALHNRYTQKSLSLSP |
| 1.04 | GLS3000 S56Q one-arm antibody (antibody, human IgG1, kappa, L234A L235A, N297A, name in Kabat numbering) light: DIVMTQSPLSLPVTPGEPASISCRSSQSLVHSNRNTYLHWYQQKPGQAPRLLIYKVSNRFQGVPDRFSGSGSGTDFTLKISRVEAEDVGVYYCGQGTQVPYTFGQGTKLEIKRTVAAPSVFIFPPSDEQLKSGTASVVCLLNNFYPREAKVQWKVDNALQSGNSQESVTEQDSKDSTYSLSSTLTLSKADYEKHKVYACEVTHQGLSSPVTKSFNRGEC heavy: QVQLVESGGGVVQPGRSLRLSCAASGFTFSNAWMHWVRQAPGKGLEWVAQIKAKSNNYATYYAESVKGRFTISRDDSKNSLYLQMNSLKTEDTAVYYCRYVHYGAYYGVDAWGQGTTVTVSSASTKGPSVFPLAPSSKSTSGGTAALGCLVKDYFPEPVTVSWNSGALTSGVHTFPAVLQSSGLYSLSSVVTVPSSSLGTQTYICNVNHKPSNTKVDKKVEPKSCDKTHTCPPCPAPEAAGGPSVFLFPPKPKDTLMISRTPEVTCVVVDVSHEDPEVKFNWYVDGVEVHNAKTKPREEQYASTYRVVSVLTVLHQDWLNGKEYKCKVSNKALPAPIEKTISKAKGQPREPQVYTLPPSRCELTKNQVSLSCAVKGFYPSDIAVEWESNGQPENNYKTTPPVLDSDGSFFLVSKLTVDKSRWQQGNVFSCSVMHEALHNHYTQKSLSLSPDYKDDDDK EPKSSDKTHTCPPCPAPELLGGPSVFLFPPKPKDTLMISRTPEVTCVVVDVSHEDPEVKFNWYVDGVEVHNAKTKPREEQYNSTYRVVSVLTVLHQDWLNGKEYKCKVSNKALPAPIEKTISKAKGQPREPQVCTLPPSRDELTKNQVSLWCLVKGFYPSDIAVEWESNGQPENNYKTTPPVLDSDGSFFLYSKLTVDKSRWQQGNVFSCSVMHEALHNRYTQKSLSLSP |
